The text below walks through data of PMC5557760.

The target of this data set is T1, PtpA (Mycobacterium tuberculosis) (UniProt P9WIA1).
T1 sequence: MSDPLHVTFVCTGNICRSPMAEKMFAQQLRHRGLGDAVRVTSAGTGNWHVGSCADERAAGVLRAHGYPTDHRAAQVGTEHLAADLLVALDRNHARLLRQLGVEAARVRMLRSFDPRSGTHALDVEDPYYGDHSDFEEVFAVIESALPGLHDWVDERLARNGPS
As to the kind of experiment: competition. Particulars: EMSA: 10 ug PtpA, 10 nM biotin-labeled DNA, Beyotime GS009 binding buffer (salt, pH not stated), 20 min, room temperature, 15% native PAGE.

“CCTTAAAACAAAAGACATGAAAAGATAATAAGAAAAAAGTGCCGCAACTATTATAGAAAAACACTTGGCAGCCTGCTTCAGCCCAAGCTGAGGCCACCTCTAGCCTCTGCTAAAGCCCCCCACTCCCAATGGTCCCCGCCAACCGGATAA (double strand) [GADD45A promoter -250 to -100, unlabeled negative competitor]”: the binding entry is “no binding”.
